The target in one experiment is GST-Casp8p41 (UniProt Q14790). Briefly: SPR, GST-Bcl-2 R146A over immobilized Casp8p41. On the technique in general: In SPR one partner is held on a chip, and binding of the other changes the refractive index at the surface.
For another experiment, the target named is GST-Bcl-xL (UniProt Q07817). Put plainly: SPR (Biacore 3000), GST-Bcl-xL binding to GST-Casp8p41, mean of 3 experiments; target Bcl-xL.
The target in experiment [1] is GST-Bcl-2 (human) (UniProt P10415). Briefly: SPR (Biacore 3000), GST-Bcl-2 injected over immobilized GST-Casp8p41, mean of 3 experiments; target Bcl-2.
Chain of GST-Bcl-2 (human) (P10415 1-218): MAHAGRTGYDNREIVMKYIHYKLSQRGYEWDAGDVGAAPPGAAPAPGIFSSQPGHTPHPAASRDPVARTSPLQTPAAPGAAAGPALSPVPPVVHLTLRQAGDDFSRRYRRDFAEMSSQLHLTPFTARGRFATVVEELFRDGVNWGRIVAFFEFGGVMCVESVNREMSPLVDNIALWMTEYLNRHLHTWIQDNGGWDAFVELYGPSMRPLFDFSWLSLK
A further experiment deals with GST-Mcl-1 (UniProt Q07820). Briefly: SPR (Biacore 3000), GST-Mcl-1 binding to GST-Casp8p41, mean of 3 experiments; target Mcl-1.
Chain of GST-Mcl-1 (Q07820 1-327): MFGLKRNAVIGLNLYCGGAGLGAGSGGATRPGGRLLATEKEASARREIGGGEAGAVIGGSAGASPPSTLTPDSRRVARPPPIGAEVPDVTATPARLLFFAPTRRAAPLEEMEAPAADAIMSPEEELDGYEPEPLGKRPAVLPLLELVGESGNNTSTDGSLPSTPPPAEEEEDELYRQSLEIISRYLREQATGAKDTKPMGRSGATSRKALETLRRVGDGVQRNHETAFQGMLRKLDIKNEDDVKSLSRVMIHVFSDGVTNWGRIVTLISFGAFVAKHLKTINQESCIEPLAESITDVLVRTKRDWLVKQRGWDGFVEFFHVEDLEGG
Experiment [2] deals with GST-Bcl-2 (human) (UniProt P10415). Put plainly: SPR, GST-Casp8p41 Val150Glu/Leu157Lys over immobilized GST-Bcl-2.

Chain of GST-Bcl-xL (Q07817 1-212): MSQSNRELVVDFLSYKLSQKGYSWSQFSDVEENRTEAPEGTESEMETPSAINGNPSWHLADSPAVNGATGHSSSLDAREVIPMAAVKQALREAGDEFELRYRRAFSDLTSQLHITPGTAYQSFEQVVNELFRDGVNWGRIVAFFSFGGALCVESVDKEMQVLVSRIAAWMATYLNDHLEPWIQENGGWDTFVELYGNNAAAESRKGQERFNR

In turn, “GST-Bcl-2 R146A (from UniProt P10415 1-218)” yielded a fold decrease in affinity against wild-type Bcl-2 with GST-Casp8p41 of 250 fold.

Turning to “GST-Casp8p41 (from UniProt Q14790 1-479)”, the Kd is 11 nM with GST-Bcl-xL, 13 nM with GST-Bcl-2 (human) [1] and 8 nM with GST-Mcl-1.

In turn, “GST-Casp8p41 Val150Glu/Leu157Lys (from UniProt Q14790 1-479)” showed a fold decrease in affinity against wild-type Casp8p41 in the experiment with GST-Bcl-2 (human) [2] greater than 300 fold.

In general, Kd refers to a measure of binding affinity in units of concentration. High values mean a looser complex, low ones a tighter complex.

The values above are taken from patent publication US20240374532A1.
